Measured values reported in patent publication US20120277286A1, “COMPOSITIONS AND METHODS FOR THE TREATMENT OR PREVENTION OF MITOCHONDRIAL DISEASES” (The Government of the USA, as represented by the Secretary, …, priority 2009, published 2012).

How the values were obtained:
PINK1-V5 = PINK1-V5 accumulation in cortical neurons, immunoblot; type: cell-based, rat; conditions: 1 μM CCCP, 6 hours
Excerpt: HeLa YFP-Parkin, E18 Rat cortical neurons, PINK1^+/+ SV40 transformed MEFs cells, PINK1^−/− SV40 transformed MEF, M17 neuroblastoma control shRNA, M17 neuroblastoma PINK1, Mfn1/2^−/− MEF, and Parl^−/− MEF cell lines have been described previously (Narendra (2008) J Cell Biol 183: 795-803). PINK1^+/+ and PINK1^−/− primary MEFs were isolated from embryos using a standard protocol (Gautier (2008) Proc Natl Acad Sci USA 105: 11364-11369). Parkin^+/+ and Parkin^−/− transformed MEFs were created by isolation of primary cells from embryos of B6.129S4-Park2^tm1Shn/J mice (Jackson Labs), using a standard protocol (Gautier (2008) Proc Natl Acad Sci USA 105: 11364-11369), followed by retroviral transduction of SV40 (Applied Biological Materials, Inc.). YFP-Parkin, YFP-Parkin mutants, mCherry-Parkin, PINK1-YFP, PINK1 KD-YFP, PINK1 Δ1-110-YFP, and Opa3-PINK1 Δ1-110-YFP are in C1 or N1 Clontech vectors. PINK1WT-V5, PINK1 KD-V5, and PINK1 Δ1-156-V5 are in pDest40 vector (Invitrogen). PINK1 patient mutations are in the pLenti-V5 vector (Invitrogen). PINK1-myc is in a pCMBTNT vector (Promega). The PARL shRNA construct targeting (5′ […] 3′) is in the pSuper-GFP vector. […]

[1] = test system: PINK1+/+ or PINK1−/− MEFs; experiment: YFP-Parkin recruitment to mitochondria in MEFs; type: cell-based, mouse; conditions: for Parkin recruited to mitochondria, % of cells: CCCP
Excerpt: (§1) HeLa YFP-Parkin, PINK1+/+ SV40 transformed MEFs cells, PINK1−/− SV40 transformed MEF, M17 neuroblastoma control shRNA, M17 neuroblastoma PINK1, and Mfn1/2−/− MEF cell lines have been described previously (Narendra (2008) J Cell Biol 183: 795-803). PINK1+/+ and PINK1−/− primary MEFs were isolated from embryos using a standard protocol (Gautier (2008) Proc Natl Acad Sci USA 105: 11364-11369). Parkin+/+ and Parkin−/− transformed MEFs were created by isolation of primary cells from embryos of B6.129S4-Park2tm1Shn/J mice (Jackson Labs), using a standard protocol (Gautier (2008) Proc Natl Acad Sci USA 105: 11364-11369), followed by retroviral transduction of SV40 (Applied Biological Materials, Inc.). YFP-Parkin, YFPParkin mutants, mCherry-Parkin, PINK1-YFP, PINK1 KD-YFP, PINK1 Δ1-110-YFP, and Opa3-PINK1 Δ1-110-YFP are in C1 or N1 Clontech vectors. PINK1WT-V5, PINK1 KD-V5, and PINK1 Δ1-156-V5 are in pDest40 vector (Invitrogen). PINK1 patient mutations are in pLenti-V5 vector (Invitrogen). PINK1-myc is in a pCMBTNT vector (Promega).
(§2) Confocal microscopy of fixed samples, scoring of Parkin recruitment and Parkininduced mitophagy, and live cell imaging were performed as described previously (Narendra (2008) J Cell Biol 183: 795-803). Experiments in Mfn1/2 null cells were performed as described previously with minor modifications.
HeLa YFP-Parkin, E18 Rat cortical neurons, PINK1^+/+ SV40 transformed MEFs cells, PINK1^−/− SV40 transformed MEF, M17 neuroblastoma control shRNA, M17 neuroblastoma PINK1, Mfn1/2^−/− MEF, and Parl^−/− MEF cell lines have been described previously (Narendra (2008) J Cell Biol 183: 795-803). PINK1^+/+ and PINK1^−/− primary MEFs were isolated from embryos using a standard protocol (Gautier (2008) Proc Natl Acad Sci USA 105: 11364-11369). Parkin^+/+ and Parkin^−/− transformed MEFs were created by isolation of primary cells from embryos of B6.129S4-Park2^tm1Shn/J mice (Jackson Labs), using a standard protocol (Gautier (2008) Proc Natl Acad Sci USA 105: 11364-11369), followed by retroviral transduction of SV40 (Applied Biological Materials, Inc.). YFP-Parkin, YFP-Parkin mutants, mCherry-Parkin, PINK1-YFP, PINK1 KD-YFP, PINK1 Δ1-110-YFP, and Opa3-PINK1 Δ1-110-YFP are in C1 or N1 Clontech vectors. PINK1WT-V5, PINK1 KD-V5, and PINK1 Δ1-156-V5 are in pDest40 vector (Invitrogen). PINK1 patient mutations are in the pLenti-V5 vector (Invitrogen). PINK1-myc is in a pCMBTNT vector (Promega). The PARL shRNA construct targeting (5′ […] 3′) is in the pSuper-GFP vector. To make FRB-PINK1 (111-581)-YFP and Tom20 (1-33)-FKBP, PCR fragments containing PINK1 (111-581)-YFP and Tom20 (1-33) were cloned into the BamHI site of the pC4-RHE vector and the EcoRI and XbaI sites of pC4M-F2E vectors, respectively (ARIAD Pharmaceuticals). The rapamycin analogue AP21967 was obtained from ARIAD Pharmaceuticals. The PARL shRNA construct targeting (5′ […] 3′) is in the pSuper-GFP vector (OligoEngine).
as §2, with “Parkin-induced” for “Parkininduced”, “imageing” for “imaging”, “modifications described in the supplemental methods (Narendra (2008) J Cell Biol 183: 795-803).” for “modifications.”

[2] = test system: M17 human neuroblastoma cells; experiment: Parkin-induced mitophagy in M17 cells; type: cell-based; conditions: control shRNA (Parkin line) or PINK1 shRNA, 10 μM CCCP, 24 hours
Excerpt: as §1
as §2, with “modifications. […]” for “modifications.”

COXICA65 cybrid cells = experiment: PCR-RFLP of wild-type and mutant mtDNA; type: cell-based, human
Excerpt: The forward primer, [NT], and the reversed primer, [NT], were used for COXICA65 cybrid.

In the case of `N#CC(C#N)=NNc1cccc(Cl)c1` [CCCP, carbonyl cyanide m-chlorophenylhydrazone], the PINK1-V5 level (PINK1-V5) is reported as “increases”, the “YFP-Parkin recruited to mitochondria, % of cells” value ([1]; PINK1+/+ primary MEFs, 20 μM CCCP, 3 hours) is reported as 43.3±8.1% and the “Parkin recruited to mitochondria, % of cells” value ([1]; SV40 transformed PINK1+/+ MEFs) is reported as 60.7±7.7%.

B1: PINK1: exogenously expressed wild type PINK1 (V5 or myc tagged) (protein, UniProt Q9BXM7 78-581, looked up)
Serine/threonine-protein …: AARLQRQFVVRAWGCAGPCGRAVFLAFGLGLGLIEEKQAESRRAVSACQEIQAIFTQKSKPGPDPLDTRRLQGFRLEEYLIGQSIGKGCSAAVYEATMPTLPQNLEVTKSTGLLPGRGPGTSAPGEGQERAPGAPAFPLAIKMMWNISAGSSSEAILNTMSQELVPASRVALAGEYGAVTYRKSKRGPKQLAPHPNIIRVLRAFTSSVPLLPGALVDYPDVLPSRLHPEGLGHGRTLFLVMKNYPCTLRQYLCVNTPSPRLAAMMLLQLLEGVDHLVQQGIAHRDLKSDNILVELDPDGCPWLVIADFGCCLADESIGLQLPFSSWYVDRGGNGCLMAPEVSTARPGPRAVIDYSKADAWAVGAIAYEIFGLVNPFYGQGKAHLESRSYQEAQLPALPESVPPDVRQLVRALLQREASKRPSARVAANVLHLSLWGEHILALKNLKLDKMVGWLLQQSAATLLANRLTEKCCVETKMKMLFLANLECETLCQAALLLCSWRAAL
modifications: V5 or myc tag
For B1, the “reconstitution of YFP-Parkin recruitment” value ([1]; PINK1−/− primary MEFs co-transfected with construct, 20 μM CCCP, 3 hours) was “reconstituted”, the “YFP-Parkin recruited to mitochondria, % of cells” value ([1]; PINK1−/− primary MEFs expressing the PINK1 construct, 20 μM CCCP, 3 hours) was 78.6±3.9% and the “Parkin recruited to mitochondria, % of cells” value ([1]; SV40 transformed PINK1−/− MEFs with exogenous construct) was 72.8±7.7%.

B2: YFP-Parkin: YFP-tagged Parkin E3 ligase expressed from a transfected vector (protein, UniProt O60260 1-465, looked up)
E3 ubiquitin-protein ligase …: MIVFVRFNSSHGFPVEVDSDTSIFQLKEVVAKRQGVPADQLRVIFAGKELRNDWTVQNCDLDQQSIVHIVQRPWRKGQEMNATGGDDPRNAAGGCEREPQSLTRVDLSSSVLPGDSVGLAVILHTDSRKDSPPAGSPAGRSIYNSFYVYCKGPCQRVQPGKLRVQCSTCRQATLTLTQGPSCWDDVLIPNRMSGECQSPHCPGTSAEFFFKCGAHPTSDKETSVALHLIATNSRNITCITCTDVRSPVLVFQCNSRHVICLDCFHLYCVTRLNDRQFVHDPQLGYSLPCVAGCPNSLIKELHHFRILGEEQYNRYQQYGAEECVLQMGGVLCPRPGCGAGLLPEPDQRKVTCEGGNGLGCGFAFCRECKEAYHEGECSAVFEASGTTTQAYRVDERAAEQARWEAASKETIKKTTKPCPRCHVPVEKNGGCMHMKCPQPQCRLEWCWNCGCEWNRVCMGDHWFDV
modifications: YFP fusion
notes: YFP-tagged Parkin E3 ligase expressed from a transfected vector
In the case of B2, the “cells with complete loss of mitochondria” value [2] is reported as 27.1±8.6%, the “wild-type and mutant mtDNA bands” value (COXICA65 cybrid cells; COXICA65 cybrid, YFP-Parkin for 45 days) is reported as “increase in wild-type DNA and a decrease in mutant DNA” and the “mutant mtDNA band at 63 bp” value (COXICA65 cybrid cells; COXICA65 cybrid, YFP-Parkin for sixty days) is reported as “only a very minor band of mutant mtDNA”. The “wild-type mtDNA percentage after reversion” value (COXICA65 cybrid cells; cells enriched to 73.7% wild-type, cultured without FACS selection) was roughly 20%, the “wild-type relative to mutant mtDNA” value (COXICA65 cybrid cells; cells enriched to >90% wild-type, further 67 days without FACS selection) was “more than 50%” and the “percent of wild-type mtDNA (32P labeling)” value (“percent of wild-type mtDNA” below) (COXICA65 cybrid cells; first experiment, 180 days) was 40.3%. The “percent of wild-type mtDNA” value (COXICA65 cybrid cells; first experiment, after 200 days) was 73.7% and the “percent of wild-type mtDNA” value (COXICA65 cybrid cells; second experiment, after 200 days) was 90.3%.
